B1: p35: baculovirus derived general caspase inhibitor (protein, UniProt P08160 1-299, looked up)
Early 35 kDa protein: MCVIFPVEIDVSQTIIRDCQVDKQTRELVYINKIMNTQLTKPVLMMFNISGPIRSVTRKNNNLRDRIKSKVDEQFDQLERDYSDQMDGFHDSIKYFKDEHYSVSCQNGSVLKSKFAKILKSHDYTDKKSIEAYEKYCLPKLVDERNDYYVAVCVLKPGFENGSNQVLSFEYNPIGNKVIVPFAHEINDTGLYEYDVVAYVDSVQFDGEQFEEFVQSLILPSSFKNSEKVLYYNEASKNKSMIYKALEFTTESSWGKSEKYNWKIFCNGFIYDKKSKVLYVKLHNVTSALNKNVILNTIK
B2: TRAIL: recombinant human TRAIL, TNF Related Apoptosis Inducing Ligand, purchased from Peprotech (protein, UniProt P50591 1-281, looked up)
Tumor necrosis factor ligand …: MAMMEVQGGPSLGQTCVLIVIFTVLLQSLCVAVTYVYFTNELKQMQDKYSKSGIACFLKEDDSYWDPNDEESMNSPCWQVKWQLRQLVRKMILRTSEETISTVQEKQQNISPLVRERGPQRVAAHITGTRGRSNTLSSPNSKNEKALGRKINSWESSRSGHSFLSNLHLRNGELVIHEKGFYYIYSQTYFRFQEEIKENTKNDKQMVQYIYKYTSYPDPILLMKSARNSCWSKDAEYGLYSIYQGGIFELKENDRIFVSVTNEHLIDMDHEASFFGAFLVG

Experiments:
Type in all cases: cell-based, human
[1] = test system: HeLa IG20 and control cells; experiment: Inhibition of TRAIL induced apoptosis by caspase inhibitors and DN-FADD (active caspase-3); details: control and HeLa IG20 cells transfected with inhibitor; TRAIL 100 ng/mL 5 hours
Protocol: FIG. 16. IG 20 enhanced apoptosis can be inhibited by caspase inhibitors and DN FADD HeLaIG20 and control cells (1×10^5 per well in a 6 well plate) were co-transfected with GFP-F vector along with either Crm A, p35 or DN-FADD in the ratio of 1:10. Twenty-four hours post transfection, TRAIL was added at a concentration of 100 ng/mL for 5 hours and both treated and untreated cells were stained with PE-conjugated anti-caspase3 antibodies and subjected to FACS analyses. The data were obtained from only GFP positive cells and represent 2 independent experiments carried out in duplicate.
Transfection with dominant negative FADD, CrmA and p35 constructs—Control vector and IG20 stably transfected HeLa cells were plated at 5×10^5 overnight and the dominant negative FADD, Crm A and p35 constructs were co-transfected (2 μg each) with farnesylated EGFP at a ratio of 1:5. Equal numbers of wells were co-transfected with an appropriate control vector along with EGFP-F at the same ratio. The transfected cells were left untreated or treated with the TRAIL, or with TNF-α and cycloheximide, for 5 hours and cells were collected and stained for active caspase-3 (anti caspase-3 antibody) and subjected to FACS analysis to detect active caspase-3 staining in GFP-positive cells.

caspase-3 = experiment: Caspase-3 activation in HeLa IG20 cells; details: 5 hours; TRAIL, or TNF-α and cycloheximide
Protocol: FIG. 15: IG20 Cells show increased specific activation of caspases upon TRAIL treatment A) Initiator caspases—Hela IG20 cells and control cells treated with TRAIL for 1H, were stained, with flourochrome-conjugated peptide inhibitors of specific active caspases as indicated, fixed and analyzed by FACS. B) Caspase-8 cleavage—IG20 HeLa cells and control cells were treated with TRAIL for either 1H or 3H, lysed and immunoblotted for the 10 kDa cleaved product of active caspase-8 using the 6B6 monoclonal antibody. […]
Caspase activation—To assess the general activation of caspases, cells were stained with FITC tagged caspase inhibitor Val-Ala-Asp-flouromethyl ketone Promega, Madison, Wis.) for 10 minutes at 37° C., washed and analyzed by FACS for percentage of FITC positive cells. The initiator caspases were analyzed by using carboxyflourescein labeled peptide flouromethlyketone inhibitors (FAM-peptide-FMK) directed against active caspase-8, 9 and 10 (APOLOGIX caspase detection kit, Cell Tech Inc., Minneapolis, Minn.). […] Cells were collected, washed once, resuspended in Perm/wash buffer and analyzed by FACS for PE positive population. […]

HeLa IG20 cells = experiment: TRAIL or TNF-α/cycloheximide induced apoptosis in HeLa IG20 cells (caspase activation, TMRE, Hoechst); details: 5 hours; TRAIL 100 ng/mL, or 10 ng/mL TNF-α and 10 μg/mL cycloheximide
Protocol: FIG. 13: IG20 transfected HeLa cells show increased apoptosis upon TRAIL treatment. HeLa-IG20 and control cells were treated for 5 hours with TRAIL at 100 ng/mL or with 10 ng/mL of TNF-α and 10 μg/mL of Cycloheximide and analyzed for apoptosis. A) Activation of caspases—cells were incubated for 10 minutes with FITC labeled general caspase inhibitor VAD FMK (Val-Ala-Asp-flouromethyl ketone) and analyzed by FACS. Numbers in the histogram indicate percentage of FITC positive cells. B) Mitochondrial Depolarization—Loss of the dye TMRE is indicative of mitochondrial depolarization and the numbers shown in the FACS histograms represent percentage of TMRE negative cells. All the above experiments were done in triplicates and results shown are representative histograms. […] D) Percentage of cells with condensed chromatin was calculated by counting 3 fields containing at least 200 cells each and error bars indicate mean±S.D.
Mitochondrial depolarization and chromatin condensation—2×10^5 HeLa IG20 and Vector control cells were plated into a 12-well culture dish and allowed to grow for 48 hours. […] Cells were assessed for loss of mitochondrial membrane potential by staining with tetramethylrhodamine ethyl ester (100 nm, Molecular Probes, Eugene, Oreg.) for 10 minutes, washed once with ice-cold PBS, collected and subjected to FACS analysis. […]

PA-1 cells = experiment: TRAIL-induced apoptosis in PA-1 cells (active caspase 3); details: TRAIL three hours
Protocol: FIG. 12: Effects of IG20 on PA-1 Cell Phenotypes. (A) Growth Rates. PA-1 and PA-1-IG20 cells were plated as described in Materials and Methods. Cells were then harvested and counted on the indicated days. Data are presented as mean+standard deviation of three plates for each sample. P values were <0.05 for all test groups. (B) TNFα-Induced Apoptosis. Cells were either untreated or treated with TNFα and cyclohexamide (CHX) for three hours, as described in Materials and Methods and then tested for percentages of cells with active caspase 3. (C) TRAIL-Induced Apoptosis. Cells were either untreated or treated with TRAIL for three hours and then tested for percentages of cells with active caspase 3, in the presence or absence of Z-VAD, an inhibitor of caspase activation. (D) Response to […] and TRAIL Treatment. PA-1-IG20 cells exposed to 6 and 12Gy of […] were plated as described in Materials and Methods. Twenty-four hours later, cells were either untreated or treated with TRAIL for 3 hours. All cells were then harvested and tested for levels of active caspase 3. (E) TNFα- and TRAIL-Induced NFκB Activation. Cells transfected with the NFκB-luciferase reporter were serum-deprived and then subjected to mock, TNFα, TRAIL or zVAD treatments for 5 hours. Cells were then lysed and tested for levels of luciferase activity. […]

Row | Molecule | Effect on TRAIL induced apoptosis (active caspase-3) [1] | Relative increase in caspase-3 activation, HeLa IG20 relative to control cells (caspase-3) | Increase in cells undergoing apoptosis, HeLa IG20 versus control cells (HeLa IG20 cells) | TRAIL-induced apoptosis (PA-1 cells; PA-1-IG20 cells) | TRAIL-induced apoptosis (PA-1 cells; PA-1 cells)
1 | B1 | abrogated TRAIL induced apoptosis |  |  |  | 
2 | B2 |  | five fold increase | 3-3.5 fold | highly susceptible to TRAIL-induced apoptosis | almost completely resistant

Source: US8722637B2, “Methods and compositions of IG20 and DENN-SV splice variants” (The Board of Trustees of the University of Illinois, priority 2003, dated 2014)
